Results from patent publication US20260234220A1 (OSPEDALE SAN RAFFAELE S R L, published 2026).

B1: IgG BU.54 (antibody, V domains shown)
VH: LEWGPGLVKASQTLSLTCTVSGGSISSRNFYWSWIRQPGGKGLEWIGRIYTSGSTNYNPSLKSRVTISLDTSKSQFSLKLSSVTAADTAVYYCARGTFYYDRSGNGRLDPLDYWGQGTLVTVS
VL: ELVMTQSPSSLSASVGDRVTITCQASQDISNYLNWYQQKPGKAPKLLIYDASNLETGVPSRFSGSGFGTHFTLTISSLQPEDFATYYCQQHDNLVTFGGGTKVEIK
B2: IgG BU.7 (antibody, V domains shown)
VH: LEWGPGLVKPSETLSLTCTVSGGSISSINYYWVWIRQPPGKGLEWIGNINYSGTTNYNPSLKSRVTISVDTSKNQFSLKLSSVTAADTAVYYCARQTYYYDRRGYYRPEPIEHWGQGTLVTVSS
VL: ELVMTQSPSFLSASVGDRVTITCRASQDVRSFLHWYQQRPGKAPKLLIYAASMVSSEVPSRFSGSGSETDFTLTIDGLQPEDVATYFCQQTYDTPLTFGGGTAVDIK

Target: S protein of SARS-CoV-1 on pseudotyped particles (SARS-CoV-1, UniProt P59594 14-1255)
Assay: cell-based or functional assay

Binder | neutralizing activity expressed as IC50 µg/ml (pseudovirus, luciferase) [µg/mL]
B1 | 0.4
B2 | 1.3
